The results in this text go back to US20230241113A1 (IMMATICS BIOTECHNOLOGIES, published 2023).

The target of the test is T1, HLA-A*02:01 (human).
T1 construct: captured on streptavidin plates, detected with anti-β2m; also called peptide-receptive MHC molecules; MHC class I
Briefly: UV-ligand exchange + anti-β2m ELISA; exchange yield grade: ≥10% +, ≥20% ++, ≥50 +++, ≥75% ++++. As to the method:
The individual peptide-MHC complexes were produced by UV-ligand exchange, where a UV-sensitive peptide is cleaved upon UV-irradiation and exchanged with the peptide of interest as analyzed. Only peptide candidates that can effectively bind and stabilize the peptide-receptive MHC molecules prevent dissociation of the MHC complexes. To determine the yield of the exchange reaction, an ELISA was performed based on the detection of the light chain (β2m) of stabilized MHC complexes. The assay was performed as generally described in Rodenko et al. (Rodenko et al., 2006).
96 well MAXISorp plates (NUNC) were coated over night with 2 μg/ml streptavidin in PBS at room temperature, washed 4× and blocked for 1 h at 37° C. in 2% BSA containing blocking buffer. Refolded HLA-A*02:01/MLA-001 monomers served as standards, covering the range of 15-500 ng/ml. Peptide-MHC monomers of the UV-exchange reaction were diluted 100 fold in blocking buffer. Samples were incubated for 1 h at 37° C., washed four times, incubated with 2 μg/ml HRP conjugated anti-β2m for 1 h at 37° C., washed again and detected with TMB solution that is stopped with […]. Absorption was measured at 450 nm. Candidate peptides that show a high exchange yield (preferably higher than 50%, most preferred higher than 75%) are generally preferred for a generation and production of antibodies or fragments thereof, and/or T cell receptors or fragments thereof, as they show sufficient avidity to the MHC molecules and prevent dissociation of the MHC complexes.

For the molecule ALYHQSPLL (also called ALYHQSPLL) [altORF-043], the peptide exchange yield was ≥ 75%.

For the molecule FQVTRTTGV (also called FQVTRTTGV) [altORF-034], the peptide exchange yield is ≥ 75%.

Regarding FLWDPRDVVL (also called FLWDPRDVVL) [altORF-047], the peptide exchange yield is ≥ 75%.

GLIDDKGTIKL (also called GLIDDKGTIKL) [CDC2-006]: the peptide exchange yield is ≥ 75%.

As to MVQQEKLFV (also called MVQQEKLFV) [altORF-053], the peptide exchange yield is 50 to 75%.

As for AIWSTILIA (also called AIWSTILIA) [altORF-041], the peptide exchange yield was in the range of 20 to 50%.

As for GLSPDQVFL (also called GLSPDQVFL) [altORF-052], the peptide exchange yield was ≥ 75%.

Regarding WITPVIPAL (also called WITPVIPAL) [altORF-040], the peptide exchange yield was ≥ 75%.

In the case of LVWEVVESV (also called LVWEVVESV) [altORF-003], the peptide exchange yield was ≥ 75%.

WLMPVMPAL (also called WLMPVMPAL) [altORF-069]: the peptide exchange yield was ≥ 75%.

As to KILDEFYNV (also called KILDEFYNV) [altORF-035], the peptide exchange yield was ≥ 75%.

AMVEIIPKV (also called AMVEIIPKV) [altORF-044]: the peptide exchange yield is ≥ 75%.

Turning to IAISQLTFV (also called IAISQLTFV) [altORF-063], the peptide exchange yield is ≥ 75%.

For LAASTTFLGV (also called LAASTTFLGV) [altORF-057], the peptide exchange yield was ≥ 75%.

On to KIIEDLANTV (also called KIIEDLANTV) [KRT18-001], for which the peptide exchange yield is ≥ 75%.

B1: HERVK-003 (peptide)
peptide: TLLSYSIPL
notes: From a human endogenous retrovirus; also called TLLSYSIPL
As to B1, the peptide exchange yield is ≥ 75%.

Turning to LLLALRLSL (also called LLLALRLSL) [altORF-062], the peptide exchange yield was 10 to 20%.

With ALMDGSESRFFV (also called ALMDGSESRFFV) [BSG-001], the peptide exchange yield was ≥ 75%.

For IITNLIVNI (also called IITNLIVNI) [altORF-054], the peptide exchange yield is 50 to 75%.

As for ALKELMGPA (also called ALKELMGPA) [altORF-065], the peptide exchange yield lay within 20 to 50%.

Regarding KLLADAFKV (also called KLLADAFKV) [altORF-066], the peptide exchange yield was ≥ 75%.

Take LLNVEPAGA (also called LLNVEPAGA) [altORF-032]: the peptide exchange yield is ≥ 75%.

Take LLLATLENL (also called LLLATLENL) [altORF-058]: the peptide exchange yield is ≥ 75%.

For YIYEDEVRL (also called YIYEDEVRL) [altORF-037], the peptide exchange yield was ≥ 75%.

Turning to ALHDSPVYL (also called ALHDSPVYL) [altORF-004], the peptide exchange yield is ≥ 75%.

Take SLLGKPGLTI (also called SLLGKPGLTI) [altORF-060]: the peptide exchange yield was ≥ 75%.

Regarding WLIPRQLAAA (also called WLIPRQLAAA) [altORF-042], the peptide exchange yield is ≥ 75%.

As to VLLNSNYPV (also called VLLNSNYPV) [altORF-033], the peptide exchange yield is ≥ 75%.

For the molecule GLLTQVHIL (also called GLLTQVHIL) [altORF-049], the peptide exchange yield is ≥ 75%.

Turning to VLPWQPLLL (also called VLPWQPLLL) [altORF-059], the peptide exchange yield fell in the range of 20 to 50%.

Regarding FTLPFLVNL (also called FTLPFLVNL) [altORF-038], the peptide exchange yield is ≥ 75%.

With LLCPVVLQL (also called LLCPVVLQL) [altORF-067], the peptide exchange yield is ≥ 75%.

LSFKRSLSI (also called LSFKRSLSI) [altORF-061]: the peptide exchange yield was 20 to 50%.

Turning to LAFVSHVLI (also called LAFVSHVLI) [altORF-050], the peptide exchange yield fell in the range of 20 to 50%.

As to ILNELLNSI (also called ILNELLNSI) [altORF-064], the peptide exchange yield is ≥ 75%.

For SLSAWLPSL (also called SLSAWLPSL) [altORF-036], the peptide exchange yield was ≥ 75%.

Consider YLGDSHVLL (also called YLGDSHVLL) [altORF-002], for which the peptide exchange yield is ≥ 75%.

For ILQSLVPAA (also called ILQSLVPAA) [altORF-006], the peptide exchange yield was ≥ 75%.

Turning to ALWEEVKATSL (also called ALWEEVKATSL) [altORF-005], the peptide exchange yield was ≥ 75%.

For the molecule LLLQIEPAA (also called LLLQIEPAA) [altORF-068], the peptide exchange yield is ≥ 75%.

In the case of MIISHRALEL (also called MIISHRALEL) [altORF-056], the peptide exchange yield is 20 to 50%.

B2: HERVK-002 (peptide)
peptide: STTIINLIL
notes: From a human endogenous retrovirus; also called STTIINLIL
For B2, the peptide exchange yield was 20 to 50%.

Regarding TISISLSSV (also called TISISLSSV) [altORF-051], the peptide exchange yield is ≥ 75%.

On to FLQEGDLISV (also called FLQEGDLISV) [altORF-007], for which the peptide exchange yield was ≥ 75%.

SLGPPPVGV (also called SLGPPPVGV) [CIZ1-001]: the peptide exchange yield is ≥ 75%.

YVLMTSLLL (also called YVLMTSLLL) [altORF-055]: the peptide exchange yield was ≥ 75%.

Turning to LMASEGIWESSL (also called LMASEGIWESSL) [altORF-039], the peptide exchange yield lay within 50 to 75%.

For MLAEIHPKA (also called MLAEIHPKA) [altORF-046], the peptide exchange yield is ≥ 75%.

For GLASYLDRV (also called GLASYLDRV) [altORF-048], the peptide exchange yield was ≥ 75%.

For the molecule ALLPGVPGL (also called ALLPGVPGL) [altORF-045], the peptide exchange yield was ≥ 75%.

Regarding KLPEGHLPEV (also called KLPEGHLPEV) [AHNAK2-003], the peptide exchange yield is ≥ 75%.

Take SLMEVTHDL (also called SLMEVTHDL) [LARS-001]: the peptide exchange yield was ≥ 75%.
